Viability of Ramos cells data for one molecule are collected here from patent US20150038682A1.

The assay concerns the target death receptor 4 (DR4) on Ramos cells (human) (UniProt O00220). Nature of the assay: cell-based or functional assay.

B1: HuYON007 IgG1 (antibody, V domains shown)
VH: QVTLRESGPALVKPTQTLTLTCTFSGFSLSTSGMGVSWIRQPPGKALEWLAHIYWDDDKRYNPSLKSRLTISKDTSKNQVVLTMTNMDPVDTATYYCTRRGEYGNFDYWGQGTLVTVSS
VL: QTVVTQEPSFSVSPGGTVTLTCRSSSGAVTTSNFANWVQQTPGQAPRGLIGGTNNRAPGVPDRFSGSLLGNKAALTITGAQADDESDYYCALWYSNHWVFGGGTKLTVL
In the case of B1, the viability of Ramos cells at 6.2 ng/ml antibody is 100% and the viability of Ramos cells at 111 ng/ml antibody (alamar Blue, overnight) came out at 78.3%.
